Reference: the supplement of paper PMC9170038

Tested on: K4 kissing-loop RNA reporter
Assay: apparent KD of K4 kissing-loop reporter; higher = weaker reporter binding
Conditions: Eterna round: R107
Experimental: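 RNA-MaP round R107: designed RNA switches with theophylline, tryptophan, arginine or FMN aptamers are transcribed on-chip within common flanks. They are titrated with a labelled K4 kissing-loop RNA reporter in RNA-MaP buffer (100 mM Tris pH 7.5, 80 mM KCl, 4 mM MgCl2), without ligand or with the indicated ligand. Median apparent KD per design.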

[1] = input ligand: theophylline 20 uM
[2] = input ligand: tryptophan 2.4 mM
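Also: bound reporter read as fluorescence of individual clusters on recovered sequencing chips by microscopy, with normalized cluster intensities fitted with a binding model.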

UGAUUUAACUGAAGGAGCGGCAAUUGAUAAGUAAAUAUAGUGAUGUUAUAUAAGAUAGAGAGCCAGGUAGGUCGCAGAGGUAUUU [ExArgB.N]
apparent KD of K4 kissing-loop reporter (input ligand: FMN 200 uM): 173 nM
apparent KD of K4 kissing-loop reporter (input ligand: arginine 13.2 mM): 141 nM
apparent KD of K4 kissing-loop reporter (input ligand: none): 154 nM
apparent KD of K4 kissing-loop reporter [1]: 153 nM
apparent KD of K4 kissing-loop reporter [2]: 141 nM

UGUCAUUGGUCGGCCGCCACUAAAUAAAAGAGUGAUGUUCUUAAGACGGAUCGAAAGAUCUGUCAUAGGACCGGGACCGAUGACU [TrypBS 21 #SwitchBubble #StaticStem]
apparent KD of K4 kissing-loop reporter (input ligand: FMN 200 uM): 1200 nM
apparent KD of K4 kissing-loop reporter (input ligand: arginine 13.2 mM): 891 nM
apparent KD of K4 kissing-loop reporter (input ligand: none): 1080 nM
apparent KD of K4 kissing-loop reporter [1]: 888 nM
apparent KD of K4 kissing-loop reporter [2]: 667 nM

GCCGUACGCAUGGAUACCAGCUAGACCGAGUGAUGUUCAGGUCUGAAUGCCGGUAAUAAGAGCCCUUGGCAGCCAUGCGUACGGC
apparent KD of K4 kissing-loop reporter (input ligand: FMN 200 uM): 361 nM
apparent KD of K4 kissing-loop reporter (input ligand: arginine 13.2 mM): 262 nM
apparent KD of K4 kissing-loop reporter (input ligand: none): 358 nM
apparent KD of K4 kissing-loop reporter [1]: 335 nM
apparent KD of K4 kissing-loop reporter [2]: 307 nM

UAGGUUUAAUCGGCCGCCACUAUCAGAGCGCCAGUGAUGUUGGAGUAACGAUCGUGGCGAGUUAAUAGGACCGGGAUUCAACACA [Velazaer]
apparent KD of K4 kissing-loop reporter (input ligand: FMN 200 uM): 159 nM
apparent KD of K4 kissing-loop reporter (input ligand: arginine 13.2 mM): 141 nM
apparent KD of K4 kissing-loop reporter (input ligand: none): 141 nM
apparent KD of K4 kissing-loop reporter [1]: 152 nM
apparent KD of K4 kissing-loop reporter [2]: 156 nM

UUCUAACACACCGAUACCAGAGCCCAGUGAUGUUGGGCCUAGGUCGGAUGCUCACUGACGCUCCCUUGGCAGCGGUGGGCUAACC [Arreisve]
apparent KD of K4 kissing-loop reporter (input ligand: FMN 200 uM): 127 nM
apparent KD of K4 kissing-loop reporter (input ligand: arginine 13.2 mM): 112 nM
apparent KD of K4 kissing-loop reporter (input ligand: none): 116 nM
apparent KD of K4 kissing-loop reporter [1]: 110 nM
apparent KD of K4 kissing-loop reporter [2]: 114 nM

AGACUACCUACACUGUCAAUAGACAGUGACUAGGAUAUGCUGAUAAGCAGAAGGAGUGAUGUUCCUAAUAAAAGGUGGUAGUCAU [FmnAX 19 #SwitchBubble #StaticStem #K4Early]
apparent KD of K4 kissing-loop reporter (input ligand: FMN 200 uM): 309 nM
apparent KD of K4 kissing-loop reporter (input ligand: arginine 13.2 mM): 258 nM
apparent KD of K4 kissing-loop reporter (input ligand: none): 230 nM
apparent KD of K4 kissing-loop reporter [1]: 284 nM
apparent KD of K4 kissing-loop reporter [2]: 173 nM

GGGAGGAGUGGUGUUGAUUAGGGAGCGGAAGGAGCGCCGAAGAAGGCAGGUAGGUCGCCGGAAUAUAGUGAUGUUAUAUAGAGGG [ExArg.G]
apparent KD of K4 kissing-loop reporter (input ligand: FMN 200 uM): 304 nM
apparent KD of K4 kissing-loop reporter (input ligand: arginine 13.2 mM): 211 nM
apparent KD of K4 kissing-loop reporter (input ligand: none): 270 nM
apparent KD of K4 kissing-loop reporter [1]: 168 nM
apparent KD of K4 kissing-loop reporter [2]: 201 nM

GUGCAGUGAUGUUGCACGAGGAAAGACGAUACCAGCCGUAAAUAAGGCCCUUGGCAGCGUGGGCUAGCACAAAAUAUGCUAGUCU [Laleingeat]
apparent KD of K4 kissing-loop reporter (input ligand: FMN 200 uM): 97.9 nM
apparent KD of K4 kissing-loop reporter (input ligand: arginine 13.2 mM): 99.6 nM
apparent KD of K4 kissing-loop reporter (input ligand: none): 107 nM
apparent KD of K4 kissing-loop reporter [1]: 68.4 nM
apparent KD of K4 kissing-loop reporter [2]: 117 nM

UGUACCGAGUCAGGAUAUAGCGUCGAAAGACGAAUCCUAGUGAUGUUAGGGAUCUGCGAAAGCAGUCUAGAAGGGACUUGGUACU [FmnBS 26 A19+U68]
apparent KD of K4 kissing-loop reporter (input ligand: FMN 200 uM): 275 nM
apparent KD of K4 kissing-loop reporter (input ligand: arginine 13.2 mM): 278 nM
apparent KD of K4 kissing-loop reporter (input ligand: none): 295 nM
apparent KD of K4 kissing-loop reporter [1]: 293 nM
apparent KD of K4 kissing-loop reporter [2]: 291 nM

GGUGGCUUACAAAGCUCAGUGAUGUUGAGCCGAGGACCGGUACGGCCGCCACUCGUUUGCCAUUCACUACAGUUACAAGCACUAG [theeternabot_exclusion_KL_Trp_A_2]
apparent KD of K4 kissing-loop reporter (input ligand: FMN 200 uM): 269 nM
apparent KD of K4 kissing-loop reporter (input ligand: arginine 13.2 mM): 217 nM
apparent KD of K4 kissing-loop reporter (input ligand: none): 279 nM
apparent KD of K4 kissing-loop reporter [1]: 282 nM
apparent KD of K4 kissing-loop reporter [2]: 292 nM

AUUUUGGUUGAAGGAUAUUCUCCCAUCGACGCGAUAAGAUACUUUGGAAGGUUUGCAGUGAUGUUGGAAGAAGGUCAAAGUUGUA [theeternabot_exclusion_KL_FMN_B_22]
apparent KD of K4 kissing-loop reporter (input ligand: FMN 200 uM): 479 nM
apparent KD of K4 kissing-loop reporter (input ligand: arginine 13.2 mM): 382 nM
apparent KD of K4 kissing-loop reporter (input ligand: none): 611 nM
apparent KD of K4 kissing-loop reporter [1]: 689 nM
apparent KD of K4 kissing-loop reporter [2]: 523 nM

AAAUAAAUCACGGCCGCCACUGCUAGAGUGAUGUUCUAUUAAUAAUUUCUAAAUUAUAUAAUACUCAGGACCGGGUGAUUUUUAA [JR_SSTryptoB_Sub020]
apparent KD of K4 kissing-loop reporter (input ligand: FMN 200 uM): 578 nM
apparent KD of K4 kissing-loop reporter (input ligand: arginine 13.2 mM): 215 nM
apparent KD of K4 kissing-loop reporter (input ligand: none): 355 nM
apparent KD of K4 kissing-loop reporter [1]: 426 nM
apparent KD of K4 kissing-loop reporter [2]: 446 nM

CGAGUGAUGUUCGAAGAGUUGUUAAGCGAUACCAGCCAGGAAACUGGCCCUUGGCAGCGUAAUAAAUAAAUAAAUAAAUGAUCAC [Theophylline A Exclusion; Euphoria Solution]
apparent KD of K4 kissing-loop reporter (input ligand: FMN 200 uM): 425 nM
apparent KD of K4 kissing-loop reporter (input ligand: arginine 13.2 mM): 438 nM
apparent KD of K4 kissing-loop reporter (input ligand: none): 472 nM
apparent KD of K4 kissing-loop reporter [1]: 430 nM
apparent KD of K4 kissing-loop reporter [2]: 372 nM

GUAUAUUAGGGAGACCUAAUAUAAAUAGAAGGAGCGUAGGAAACUACAGGUAGGUCGCUAAAUAUACAGUGAUGUUGUAUAAUGG [arg a same]
apparent KD of K4 kissing-loop reporter (input ligand: FMN 200 uM): 183 nM
apparent KD of K4 kissing-loop reporter (input ligand: arginine 13.2 mM): 147 nM
apparent KD of K4 kissing-loop reporter (input ligand: none): 172 nM
apparent KD of K4 kissing-loop reporter [1]: 195 nM
apparent KD of K4 kissing-loop reporter [2]: 141 nM

GAGAUAGAGGCGGCCGCCACUAGUGAUGUUAGUGAUGUUAGAUAGAGAAUAUAACAGGGAUUAGAUAGGACCGGGCCAGAUGGAG ['lljullin]
apparent KD of K4 kissing-loop reporter (input ligand: FMN 200 uM): 116 nM
apparent KD of K4 kissing-loop reporter (input ligand: arginine 13.2 mM): 104 nM
apparent KD of K4 kissing-loop reporter (input ligand: none): 130 nM
apparent KD of K4 kissing-loop reporter [1]: 103 nM
apparent KD of K4 kissing-loop reporter [2]: 100 nM

AUGUAUAUCUCAGGAUAUAUAUGUGUGUGGUGUAUACAUAGUGAUGUUGUGUAUAUCCACAUAUGUAUAGAAGGGAGAUGUGCAU [Skye_SS_FMNB]
apparent KD of K4 kissing-loop reporter (input ligand: FMN 200 uM): 76.3 nM
apparent KD of K4 kissing-loop reporter (input ligand: arginine 13.2 mM): 73.5 nM
apparent KD of K4 kissing-loop reporter (input ligand: none): 73.9 nM
apparent KD of K4 kissing-loop reporter [1]: 66 nM
apparent KD of K4 kissing-loop reporter [2]: 72 nM

UUUCGUUGAAGUGAUACCAGACUUGAAAGUGAUGUUUUCCAAUAAAUUAAAUUAUUAGCUGUCCCUUGGCAGCACAGUUUAUUUA [JR_ExcTheophyB_Sub006]
apparent KD of K4 kissing-loop reporter (input ligand: FMN 200 uM): 205 nM
apparent KD of K4 kissing-loop reporter (input ligand: arginine 13.2 mM): 345 nM
apparent KD of K4 kissing-loop reporter (input ligand: none): 301 nM
apparent KD of K4 kissing-loop reporter [1]: 389 nM
apparent KD of K4 kissing-loop reporter [2]: 186 nM

AUGCGCGCGGCGGCCGCCACUCGCAUGAGAGUGAUGUUCUCGCCGGGCCCGCAAGGGCCCGGUGUGAGGACCGGGCCGGGCUGCG [#2 Same State - Tryptophan B Attempt #18 (HarryS)]
apparent KD of K4 kissing-loop reporter (input ligand: FMN 200 uM): 632 nM
apparent KD of K4 kissing-loop reporter (input ligand: arginine 13.2 mM): 0.441 nM
apparent KD of K4 kissing-loop reporter (input ligand: none): 257 nM
apparent KD of K4 kissing-loop reporter [1]: 193 nM
apparent KD of K4 kissing-loop reporter [2]: 136 nM

GUAGACAGACUGCAAGCCUAGUCUACAGACUAGGAUAUCAGGAAACUGAGAAGGAGUCUAGUUGCAGUGAUGUUGCAAGAAUAAU [KL-SSFMN-A24]
apparent KD of K4 kissing-loop reporter (input ligand: FMN 200 uM): 120 nM
apparent KD of K4 kissing-loop reporter (input ligand: arginine 13.2 mM): 135 nM
apparent KD of K4 kissing-loop reporter (input ligand: none): 123 nM
apparent KD of K4 kissing-loop reporter [1]: 140 nM
apparent KD of K4 kissing-loop reporter [2]: 99.8 nM

UGUGUUUACCUGACUCAGUGAUGUUGAGAAGGAGCGUGGGAAACCACAGGUAGGUCGCUCAACCUAAAUUCAGGUGAGCACUAAA
apparent KD of K4 kissing-loop reporter (input ligand: FMN 200 uM): 327 nM
apparent KD of K4 kissing-loop reporter (input ligand: arginine 13.2 mM): 219 nM
apparent KD of K4 kissing-loop reporter (input ligand: none): 399 nM
apparent KD of K4 kissing-loop reporter [1]: 303 nM
apparent KD of K4 kissing-loop reporter [2]: 231 nM

GGAGAGCGAAAAGGAUAUGCGUCCGUCAAAAUUAUGUAGCGCGGAAAAUGGUAGUGAUGUUGCAAAGCAGAAGGUUUCAGAUGUA [theeternabot_sameState_KL_FMN_B_43]
apparent KD of K4 kissing-loop reporter (input ligand: FMN 200 uM): 260 nM
apparent KD of K4 kissing-loop reporter (input ligand: arginine 13.2 mM): 259 nM
apparent KD of K4 kissing-loop reporter (input ligand: none): 450 nM
apparent KD of K4 kissing-loop reporter [1]: 519 nM
apparent KD of K4 kissing-loop reporter [2]: 216 nM
